# According to patent US20130171170A1 (published 2013):
# Residue numbers refer to the chain shown, from its start. Names and notes keep the numbering of the source. Values joined by “and” are separate entries in the source; they are usually repeats but may differ in a detail not shown here. Identical values can stand only once.
# T1: cynomolgus monkey (cyno) CD22 expressed on the surface of CHO cells (cynomolgus monkey)
# T1 construct: residues 1-19 (signal) should be removed
# T1 chain: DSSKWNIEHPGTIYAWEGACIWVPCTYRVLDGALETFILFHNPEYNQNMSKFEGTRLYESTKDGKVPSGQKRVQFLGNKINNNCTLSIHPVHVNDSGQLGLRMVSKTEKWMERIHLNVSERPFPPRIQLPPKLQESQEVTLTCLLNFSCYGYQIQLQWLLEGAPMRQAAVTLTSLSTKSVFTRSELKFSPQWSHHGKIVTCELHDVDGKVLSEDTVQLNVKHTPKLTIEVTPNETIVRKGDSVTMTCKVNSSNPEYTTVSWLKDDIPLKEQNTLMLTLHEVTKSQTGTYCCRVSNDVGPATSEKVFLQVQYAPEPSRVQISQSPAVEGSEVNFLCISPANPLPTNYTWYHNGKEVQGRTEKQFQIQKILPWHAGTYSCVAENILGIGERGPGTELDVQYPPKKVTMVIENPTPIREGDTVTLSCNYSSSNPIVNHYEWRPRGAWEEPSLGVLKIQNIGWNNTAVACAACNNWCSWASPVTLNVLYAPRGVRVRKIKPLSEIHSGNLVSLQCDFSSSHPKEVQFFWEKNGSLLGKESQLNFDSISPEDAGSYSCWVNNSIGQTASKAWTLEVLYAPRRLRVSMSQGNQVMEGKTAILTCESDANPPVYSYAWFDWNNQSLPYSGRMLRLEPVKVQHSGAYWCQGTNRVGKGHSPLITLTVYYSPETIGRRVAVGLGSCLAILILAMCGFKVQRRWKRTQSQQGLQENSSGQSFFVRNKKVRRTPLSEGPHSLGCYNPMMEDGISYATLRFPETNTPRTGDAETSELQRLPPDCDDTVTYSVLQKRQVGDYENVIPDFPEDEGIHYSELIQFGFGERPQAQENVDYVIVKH
# T2: human CD22-beta-ECD-His tagged soluble antigen (human, UniProt P20273 22-681)
# T2 construct: also called soluble CD22 extracellular domain (ECD); Soluble Human CD22
# T2 sequence: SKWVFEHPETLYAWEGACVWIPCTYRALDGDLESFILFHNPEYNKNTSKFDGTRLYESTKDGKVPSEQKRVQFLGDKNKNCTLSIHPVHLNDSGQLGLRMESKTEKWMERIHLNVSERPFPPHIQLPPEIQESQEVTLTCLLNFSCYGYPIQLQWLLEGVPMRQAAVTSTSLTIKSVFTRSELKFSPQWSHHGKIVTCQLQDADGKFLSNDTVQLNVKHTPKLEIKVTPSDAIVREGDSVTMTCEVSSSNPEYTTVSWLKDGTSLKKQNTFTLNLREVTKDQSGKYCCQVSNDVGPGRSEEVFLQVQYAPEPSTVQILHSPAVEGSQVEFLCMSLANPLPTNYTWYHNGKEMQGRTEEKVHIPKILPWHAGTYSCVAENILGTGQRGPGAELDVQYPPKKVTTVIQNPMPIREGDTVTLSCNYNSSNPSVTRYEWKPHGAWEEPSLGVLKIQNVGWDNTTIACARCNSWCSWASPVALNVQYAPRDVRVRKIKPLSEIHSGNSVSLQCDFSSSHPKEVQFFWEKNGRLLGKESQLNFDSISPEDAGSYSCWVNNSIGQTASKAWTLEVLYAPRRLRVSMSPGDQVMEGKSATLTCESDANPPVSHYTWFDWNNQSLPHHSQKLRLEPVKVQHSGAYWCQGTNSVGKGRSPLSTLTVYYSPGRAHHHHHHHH
# T3: CD22 expressed on the surface of BJAB-lucs cells (human, UniProt P20273 20-847)
# T3 construct: whole, on cells; also called CD22 expressed on BJAB-lucs cells
# T3 sequence (looked up): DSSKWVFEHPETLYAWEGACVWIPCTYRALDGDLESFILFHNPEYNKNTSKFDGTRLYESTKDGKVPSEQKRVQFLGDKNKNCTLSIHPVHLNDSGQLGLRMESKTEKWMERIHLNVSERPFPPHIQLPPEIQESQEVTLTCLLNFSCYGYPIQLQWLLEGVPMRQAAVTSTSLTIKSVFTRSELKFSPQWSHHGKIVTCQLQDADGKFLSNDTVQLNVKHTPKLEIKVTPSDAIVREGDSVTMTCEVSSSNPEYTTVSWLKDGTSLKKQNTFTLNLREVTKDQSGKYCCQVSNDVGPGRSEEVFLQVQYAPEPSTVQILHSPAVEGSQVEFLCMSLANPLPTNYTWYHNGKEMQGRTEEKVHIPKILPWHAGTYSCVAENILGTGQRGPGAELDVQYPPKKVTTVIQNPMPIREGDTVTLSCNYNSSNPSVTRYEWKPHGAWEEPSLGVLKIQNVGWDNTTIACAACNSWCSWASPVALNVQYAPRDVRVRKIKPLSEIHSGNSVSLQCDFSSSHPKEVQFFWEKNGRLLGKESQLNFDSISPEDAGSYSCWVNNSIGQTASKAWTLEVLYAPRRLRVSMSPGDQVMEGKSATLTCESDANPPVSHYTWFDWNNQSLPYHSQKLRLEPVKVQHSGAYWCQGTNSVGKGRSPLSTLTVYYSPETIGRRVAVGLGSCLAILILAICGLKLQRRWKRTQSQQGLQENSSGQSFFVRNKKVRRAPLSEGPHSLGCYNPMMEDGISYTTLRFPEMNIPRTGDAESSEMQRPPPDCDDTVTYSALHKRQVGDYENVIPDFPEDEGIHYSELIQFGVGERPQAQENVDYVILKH
# B1: humanized 10F4 version 1 antibody (antibody, IgG1, V domains shown)
# VH: EVQLVESGGGLVQPGGSLRLSCAASGYEFSRSWMNWVRQAPGKGLEWVGRIYPGDGDTNYSGKFKGRFTISADTSKNTAYLQMNSLRAEDTAVYYCARDGSSWDWYFDVWGQGTLVTVSS
# VL: DIQMTQSPSSLSASVGDRVTITCRSSQSIVHSNGNTFLEWYQQKPGKAPKLLIYKVSNRFSGVPSRFSGSGSGTDFTLTISSLQPEDFATYYCFQGSQFPYTFGQGTKVEIKR
# notes: only variable domains are tied to v1; also called humanized 10F4v1; hu10F4v1
# B2: Chimeric 10F4 (antibody, V domains shown)
# VH: QVQLQQSGPELVKPGASVKISCKASGYEFSRSWMNWVKQRPGQGREWIGRIYPGDGDTNYSGKFKGKATLTADKSSSTAYMQLSSLTSVDSAVYFCARDGSSWDWYFDVWGAGTTVTVSS
# VL: DILMTQTPLSLPVSLGDQASISCRSSQSIVHSNGNTFLEWYLQKPGQSPKLLIYKVSNRFSGVPDRFSGSGSGTDFTLKISRVEAEDLGVYYCFQGSQFPYTFGGGTKVEIK
# notes: also called murine chimeric 10F4
# B3: humanized 10F4 version 2 antibody (antibody, human IgG1, kappa)
# heavy: not shown
# light: DIQMTQSPSSLSASVGDRVTITCRSSQSIVHSVGNTFLEWYQQKPGKAPKLLIYKVSNRFSGVPSRFSGSGSGTDFTLTISSLQPEDFATYYCFQGSQFPYTFGQGTKVEIKRTVAAPSVFIFPPSDEQLKSGTASVVCLLNNFYPREAKVQWKVDNALQSGNSQESVTEQDSKDSTYSLSSTLTLSKADYEKHKVYACEVTHQGLSSPVTKSFNRGEC
# notes: Differs from hu10F4v1 by N28V (Kabat) in HVR-L1; Mature protein identical to hu10F4v3; also called humanized 10F4v2; hu10F4v2
# B4: thio hu LC(V205C) 10F4v3-MCvcPAB-MMAE (antibody, human IgG1, kappa)
# heavy: not shown
# light: B3 light with V210C
# modifications: MC-val-cit-PAB-MMAE on the engineered Cys at Kabat position 205 (sequential position 210)
# notes: Cysteine engineered IgG1 (ThioMab) drug conjugate; also called thio hu LC-10F4v3-MC-val-cit-PAB-MMAE; Thio 10F4v3-LC(V205C)-MCvcPAB-MMAE
# Assays:
# [1] = target: T1, cynomolgus monkey (cyno) CD22 expressed …; experiment: cell-based competitive binding of 125I-labelled against unlabelled antibody on CHO cells, Scatchard analysis; repeated assays
# Protocol: (§1) Briefly, CHO cells stably expressing full length human CD22 (SEQ ID NO:27) or cynomolgus monkey (cyno) CD22 (SEQ ID NO:31). […] A cell-based, competitive binding assay was performed using serially diluted, unlabeled anti-CD22 antibody. Antibodies were allowed to bind to the cells for 4 hours at 4° C. Binding affinity, KD, of the antibodies was determined in accordance with standard Scatchard analysis performed utilizing a non-linear curve fitting program (see, for example, Munson et al., Anal Biochem, 107: 220-239, 1980).
# [2] = target: T2, human CD22-beta-ECD-His tagged soluble …; experiment: SPR (BIACORE 3000), antibody coupled to the chip, soluble CD22-beta-ECD-His injected, 25 C
# Protocol: The binding affinity of murine and humanized 10F4 antibody for soluble CD22 extracellular domain (ECD) was determined by surface plasmon resonance measurement using a BIACORE® 3000 system (Biacore, Inc., Piscataway, N.J.). Briefly, carboxymethylated dextran biosensor chips (CMS, Biacore Inc.) were activated with N-ethyl-N′-(3-dimethylaminopropyl)-carbodiimide hydrochloride (EDC) and N-hydroxysuccinimide (NHS) according to the supplier's instructions. These activated chips were coated with anti-CD22 IgG1 antibody 10F4 (murine or humanized) by dilution to 5 μg/ml with 10 mM sodium acetate, pH 4.8, before injection at a flow rate of […] to achieve approximately 500 response units (RU) of coupled antibody. Next, 1M ethanolamine was injected to block unreacted groups. […] Association rates (kₒₙ) and dissociation rates (koff) were calculated using a simple one-to-one Langmuir binding model (BIAevaluation Software version 3.2). The equilibrium dissociation constant (Kd) was calculated as the ratio koff/kₒₙ. Anti-CD22 antibody, RFB4, was used as a control (Chemicon International, Inc., Temecula, Calif., catalog no. CBL147).
# [3] = target: T1, cynomolgus monkey (cyno) CD22 expressed …; experiment: cell-based competitive binding of 125I-labelled against unlabelled antibody on CHO cells, 4 h at 4 C, Scatchard analysis
# Protocol: as §1
# [4] = target: T3, CD22 expressed on the surface of …; experiment: FACS on BJAB-lucs cells; biotinylated goat anti-huFc plus Streptavidin-PE
# Description: Anti-CD22 antibody bound to the cell surface was detected using biotinylated goat anti-huFc plus Streptavidin-PE.
binder,measurement,setting,value
B1,Kd,[1],1.4 nM and 1.8 nM
B2,Kd,[2],16 nM
same,koff,[2],0.00042 s⁻¹
same,kon,[2],26000 M⁻¹ s⁻¹
B3,Kd,[3],2.1 nM
B4,binding result,[4],binds
